# According to patent publication US20180334496A1 (KODIAK SCIENCES, published 2018):
# Residue numbers refer to the chain shown, from its start.
# B1: KCD212 (antibody, V domains shown)
# VH: EVHLVESGGDLVKPGGSLKLSCAASGFTFSRYGMSWVRQTPDKRLEWVATISSAGSYTYYPDSVKGRFTISRDNAKNTLFLQMSSLKSEDTAMYYCARPLNYYGTSSFDYWGQGTTLTVSS
# VL: QIVLTQSPAIMSASPGEKVTMTCRASSSVSSTYLHWYQQKPGSSPKLWIYSTSNLASGVPPRFSGSGSGTSYSLTISSVEAEDAATYYCQQYDSSPNTFGAGTKLELK
# B2: KCD210 (antibody, V domains shown)
# VH: EVQLQQSGPVLVKPGASVTMSCKASGYTFTEYYMNWVKQSHGKSLDWIGVINPYSGGTSYKQKFKDKATLTVDKSSSTAYMELNGLTSEDSAVYFCVRGGLRRNYFDYWGQGTTLTVSS
# VL: EIVLTQSPALMTASPGEKVTITCSVSSSISSTNLHWYQQKSGTSPKPWIFGTSNLASGVPVRFSGSGSGTSYSLTISNMEAEDAATYYCQQWNSYPFTFGTGTKLEIK
# B3: KCD110 (antibody, V domains shown)
# VH: EVQLQQSGPELVKPGASVKISCKASGYSFTGYYMHWVKQSHGNILDWIGYIDPDNGVSSKNQKFTGKATVTADKSSSTAYMELRSLTSEDSAVYYCAGYYGSSWYWYFDVWGTGTTVTVSS
# VL: QIVLSQSPAILSASPGEKVTMTCRASSSVSYMHWYQQKPGSSPKPWIYATSNLASGVPARFSGSGSGTSYSLTISRVEAEDAATYYCQQWSSNPYTFGGGTKLEIK
# B4: KCD131 (antibody, V domains shown)
# VH: QVQLQQSGPELVKPGASVKISCKASAYTFTDYYINWVKQRPGQGPEWIGWIFPGSNSTYSNEKFEVKATLTVDESSSTAYMLLSSLTSEDSAVYFCARLGYFGSSYHALDYWGQGTSVTVSS
# VL: DIQMTQSPASLSVSVGETVTITCRASENIYSHLAWFQQKQGKSPRLLVYSATNLPDGVPSRFSGSGSGTQYSLKINILQSEDFGSYYCQHFWGTPWTFGGGTKLEIK
# B5: KCD219 (antibody, V domains shown)
# VH: QVQLQQSGPELVKPGASVKISCKASGYTFTDYYINWVKQRPGQGLEWIGWIFPGSGSTYYNEKFKGKATLTVDKSSSTAYMLLSSLPSEDSAVYFCARYGYYGSSFYAMDYWGQGTSVTVSS
# VL: B4 VL with H32N, F36Y, R45Q, S50A, P55A, I77S, T94S, W96P
# B6: KCD224 (antibody, V domains shown)
# VH: QVQLKESGPGLVAPSQSLSITCTVSGFSLTSYGVDWIRQSPGKGLEWLGVIWGVGSTNYNSALKSRLSISKDNSKSQVFLKMNSLQTDDTAMYYCARSYDGSYWYFDVWGTGTTVTVSS
# VL: DIQMTQTTSSLSASLGDRVTISCRASQVISNYLNWYQQKPDGTVKLLIYYTSRLHSGVPSRFSGSGSGTDYSLTISNLEPEDIATYYCQQYSKLPYTFGSGTKLEIK
# B7: KCD075 (antibody, V domains shown)
# VH: QVQLLQPGAELVRPGTSVKLSCKASGYTFSNYWINWVKQRPGQGLEWIGNIYPSDSSINYNQKFKDKATLTVDKSSTTAYMQLSSPTSEDSAVYYCTGTDWYFDVWGAGTTVTVSS
# VL: B6 VL with R24S, A25G, S26G, V28G, V44F, R53T, I83V, S100G
# B8: KCD225 (antibody, V domains shown)
# VH: B5 VH with V37M, G56D, P87T, Y99L, G103S, S104H, F106Y
# VL: DIQMTQSPASLSVSTGETVTITCRASENIYSNLAWFQQKQGKSPQLLVYAATNLADGVPSRFSGSGSGTQYSLKITSLQSEDFGSYYCQHFWGTPLTFGAGTKLDLK
# B9: KCD135 (antibody, V domains shown)
# VH: EVQLQQSGPELVKPGASVRMSCKASGYIFTDYSIHWVKQSHGKSLEWIGYINPNNGGTSYNQKFKGKATLTVNKSSTTAYMELRSLTSEDSAVYFCARDTTIVGDYWGQGTTLTVSS
# VL: DIVMTQSQKFMSTSVGDRVSVTCKASQHVGTNVVWYQQKPGQSPKALIYSASYRYSGVPDRFSGSGSGTDFTLTISNVQSEDLAEYFCQQFNSYPLTFGGGTKLEIK
# B10: KCD066 (antibody, V domains shown)
# VH: QVQLQQSAAELARPGASVKMSCKASGYTFTDYTMHWVKQRPGQGLEWIGYINPSGGYTDYNQKFKDKTALTADKSSSTAYMQLSSLTSEDSAVYYCARRRDYWFAYWGQGTLVTVSA
# VL: DIVMSQSPSSLAVSVGEKVTMSCKSSQSLLYSGNQKNYLAWYQQKPGQSPKLLIYWASTRESGVPDRFTGSGSGTDFTLTISSVKAEDLAVYYCHQYYSYLTFGAGTKLELK
# B11: KCD139 (antibody, V domains shown)
# VH: EVQLQQSGAELVRPGSSVKMSCKTSGYTFTSYGINWVKQRPGQGLEWIGYIYIANGYTENNEKFKGKAKLTSDISSSTAYMQLSSLTSEDSAIYFCARRFDYAGALDYWGQGTSVTVSS
# VL: DIVLTQSPASLAVSLGQRATISCRASESVDSYGNSFMHWYQQKPGQPPKLLIHRASNLESGIPARFSGSGSRTDFTLTINPVEADDVAIYYCQQTNDDPYTFGGGTNLEIK
# B12: KCD136 (antibody, V domains shown)
# VH: EVQLQQSVAELVRPGASVKLSCSASGFNIKNTYMHWVNQRPEQGLEWIGRIDPANGITKYAPNFQGKATITADTSSNTAYLQLSNLTSEDTAIYYCTRAMDYWGQGTSVTVSS
# VL: QIVLTQSPAIMSASPGEKVTMTCSASSSVSYMYWYQQKPGSSPRLLIYDISNLASGVPVRFSGSGSGTSYSLTISRMEAEDAATYYCQQWDTYPWTFGGGTKLEIK
# B13: KCD011 (antibody, V domains shown)
# VH: EVKLVESGGGLVQPGGSLKLSCAASGFTFSSNTMSWVRQTPEKRLEWVAYITNGGGSTYYPDTVKGRFTISRDNARNTLYLQMSSLKSEDTAMYYCARHDYYTMDYWGQGTSVTVSS
# VL: DIQMTQSPSSLSASLGGKVTITCKASQDINKYIAWYQHKPGKGPRLLIHYTSTLQPGIPSRFSGSGSGRDYSFSISNLEPEDIATYYCLQYDNLLYTFGGGTKLEIK
# B14: KCD058 (antibody, V domains shown)
# VH: EVKLVESGGDLVQPGGSLKLSCAASGFTFSRYIMSWVRLTPEKRLEWVAFITNGGGNTYHPDTVKGRFTISRDNANNTLYLQMSSLKSEDTAIYYCARHDYYALDYWGQGTSVTVSS
# VL: B13 VL
# B15: KCD056 (antibody, V domains shown)
# VH: B13 VH with L20V, S31T, N32Y, V64E, R76K, A97V, T103A
# VL: B13 VL with K103T
# B16: KCD057 (antibody, V domains shown)
# VH: B14 VH with D10G, R31N, L39Q, F50Y, N57A, H60Y, R67Q, N76K, Y101F, Y106F
# VL: B13 VL with Q90K
# B17: KCD030 (antibody, V domains shown)
# VH: QVQLQQSGAELAKPGASVKMSCKASGYTFTNYWMHWVKQRPGQGLEWIGYINPSIGYTEYNQKFKDKATLTADKSSSTAYMQLSSLTSEDSAVFYCATFIYYAMDYWGQGTSVTVSS
# VL: DIQMNQSPSSLSASLGDTITITCHASQNINVWLSWYQQKPGNIPKLLIYKASNLHTGVPSRFSGSGSGTGFTLTISSLQPEDIATYYCQQGQSYPYTFGGGTKLEIK
# B18: KCD019 (antibody, V domains shown)
# VH: QVQLQQSGAELARPGASVKMSCKASGYTFATYTIHWVKQRPGQGLEWIGYLNLRNDYTHYNQKFRDKAALTADKSSSTAYMQLSSLTSEDSAVYNCAFRLGNDRQGWYFDVWGAGTTVTVSS
# VL: DIVMTQAHRFMSTSVGDRVIISCKASQDVGTAVAWYQQTPGQSPKILIYWTSTRHTGVPDRFTGSRSGTDFTLTISNVQSEDLADYFCQQYTTYPLTFGGGTKLEIK
# B19: KCD077 (antibody, V domains shown)
# VH: EVQLQQSGAELVRPGALVKLSCKASGFNIKDYYMHWVKQRPEQGLEWIGWIDPENGHTIYDPRFQGKATITADTSSNTAYLQLSSLTSEDTAVYYCSRGLLGFAYWGQGTLVTVSA
# VL: DIVMTQSQKFMSTSVGDRVSVTCKASQNVGTNVAWYQQKPGQSPKALIYTASYRYSGVPDRFTGSGSGTDFTLTISNVQSEDLAEYFCQQYNSYPHMYTFGGGTKLEIK
# B20: KCD063 (antibody, V domains shown)
# VH: EVKLVESGGGLVQPGGSLKLSCAASGFIFSSYIMSWVRQTPEKRLEWVAYITNGGGSTYYPDTVKGRLTISRDNAKNTLYLQMSSLKSEDTAMYYCVRHAHYYAMDYWGQGTSVTVSS
# VL: B13 VL with A34T
# B21: KCD133 (antibody, V domains shown)
# VH: EVQLVESGGGLLQPKGSLKLSCAASGFTFNTYAMNWVRQAPGKGLEWVARIRSKSSNYATYYADSVKDRFTISRDDSQSMFYLEMNNLKTEDTAMYYCVRDRGYYYVMDYWGQGTSVTVSS
# VL: DIVLTQSPASLAVSLGQRATISCRASESVEYYGTSLMQWYQQKPGQPPKLLINAASNVESGVPARFSGSGSGTDFSLNIHPVEEDDIAMYFCQQSRKVPWTFGGGTKLEIK
# B22: KCD014 (antibody, V domains shown)
# VH: B20 VH with I28T, S57N, V64I, L68F, V97A, A100G, H101T, Y102G
# VL: EIVLTQSPTTMAASPGEKITITCSASSSISSNYLHWYQQKPGFSPKLLIYRTSNLASGVPARFSGSGSGTSYSLTIGTMEAEDVATYYCQQGSSIPLTFGAGTKLELK
# Biological target: T1, human Complement Factor D (CFD), purified from human serum (human, UniProt P00746 26-253)
# T1 construct: serum purified (CompTech A136); also called serum purified CFD; hCFD-Comptech
# Assay: SPR MX96, mAbs amine-coupled, CFD injected
# T1 sequence (P00746 26-253): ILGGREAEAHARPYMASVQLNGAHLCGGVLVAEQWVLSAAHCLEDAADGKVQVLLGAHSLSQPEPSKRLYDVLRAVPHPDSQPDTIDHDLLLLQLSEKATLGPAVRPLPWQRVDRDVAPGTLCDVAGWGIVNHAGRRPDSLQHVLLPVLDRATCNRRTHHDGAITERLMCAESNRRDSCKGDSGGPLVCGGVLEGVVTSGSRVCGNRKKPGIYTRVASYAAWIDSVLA
row,Kd [nM],Binder
1,0.469,B1
2,3.52,B2
3,3.71,B3
4,0.14,B4
5,4.3,B5
6,1.17,B6
7,3.75,B7
8,8.67,B8
9,21.2,B9
10,2.88,B10
11,5.28,B11
12,4.46,B12

# Biological target: T2, recombinant human CFD mutant 1 (R157A, R207A), His-tagged (human, UniProt P00746 26-253)
# T2 construct: positions are linear positions in the mature protein; also called rhCFD-mut1-His; Mut1
# Assay: SPR MX96
# T2 sequence (P00746 26-253 R182A/R232A limits assumed): as the sequence (P00746 26-253) above, with R157A, R207A counted along it
row,Kd [nM],Binder
1,110,B13
2,7.6,B14
3,84,B15
4,2.5,B16
5,1.3,B17
6,180,B18
7,13,B19

# Biological target: T3, recombinant cynomolgus CFD, His-tagged (cynomolgus)
# T3 construct: also called rcyCFD-His; recombinant Cyno-CFD
# Assay: SPR MX96
row,Kd [nM],Binder
1,38,B13
2,11,B14
3,31,B15
4,3.1,B16
5,24,B20
6,47,B18
7,84,B21
8,14,B19

# Biological target: T4, human complement factor D purified from serum (human, UniProt P00746 26-253)
# T4 construct: serum-purified (CompTech); also called hCFD-Comptech; CFD
# Assay: SPR MX96
# T4 sequence (P00746 26-253): as the sequence (P00746 26-253) above
row,Kd [nM],Binder
1,77,B13
2,9.9,B14
3,60,B15
4,2.7,B16
5,33,B20
6,4.2,B17
7,7.2,B18
8,12,B21
9,22,B22
10,17,B19

# Biological target: T5, recombinant human CFD, His-tagged (human, UniProt P00746 26-253)
# T5 construct: also called rhCFD-His
# Assay: SPR MX96
# T5 sequence (P00746 26-253 limits assumed): as the sequence (P00746 26-253) above
row,Kd [nM],Binder
1,59,B13
2,9.4,B14
3,52,B15
4,2.7,B16
5,3.8,B17
6,61,B18
7,14,B21
8,20,B22
